T1: CD52 human leukocyte antigen (human, UniProt P31358 25-36)
T1 construct: whole, on cells; also called CD52 antigen
T1 chain (looked up): GQNDTSQTSSPS

B1: DIVH2/DIVK2 (antibody, human IgG1, V domains shown)
VH: EVQLLESGGGLVQPGGSLRLSCAGSGFTFTDFYMNWIRQPPGKAPEWIGFIRDKAKGYTTEYNPSVKGRFTISRDNSKNTLYLQMNSLRAEDTAVYYCAREGHTAAPFDYWGQGTLVTVSS
VL: DIQMTQSPSSLSASVGDRVTITCKASQNIDKYLNWYQQKPGKAPKLLIYNTNNLQTGVPSRFSGSGSGTDFTLTISSLQPEDIATYYCLQHISRPRTFGTGTKLELK
notes: also called DIVH2IDIVK2; DIVHv2/DIVKv2
B2: DIVH3/DIVK2 (antibody, human IgG1, V domains shown)
VH: EVKLQESGGGLVQPGGSMRISCSGSGFTFTDFYMNWIRQPPGKGPEWIGFIRDKAKGYTTEYNPSVKGRFTISRDNTQNTLHLQANTLRAEDTAVYYCAREGHTAAPFDYWGQGTTVTVSS
VL: DIQMTQSPSSLSASVGDRVTITCKASQNIDKYLNWYQQKPGKAPKLLIYNTNNLQTGVPSRFSGSGSGTDFTLTISSLQPEDIATYYCLQHISRPRTFGTGTKLELK
notes: also called DIVHv3/DIVKv2
B3: DIVH1/DIVK1 (antibody, human IgG1, V domains shown)
VH: EVQLLESGGGLVQPGGSLRLSCAGSGFTFTDFYMNWVRQAPGKGLEWVGFIRDKAKGYTTEYNPSVKGRFTISRDNSKNTLYLQMNSLRAEDTAVYYCAREGHTAAPFDYWGQGTLVTVSS
VL: DIQMTQSPSSLSASVGDRVTITCRASQNIDKYLNWYQQKPGKAPKSLIYNTNNLQSGVPSRFSGSGSGTDFTLTISSLQPEDIATYYCLQHISRPRTFGTGTKLELK
notes: also called DIVHv1/DIVKv1
B4: DIVH5/DIVK1 (antibody, human IgG1, V domains shown)
VH: EVQLLESGGGLVQPGGSLRLSCAGSGFTFTDFYMNWIRQPPGKAPEWLGFIRDKAKGYTTEYNPSVKGRFTISRDNSKNTLYLQMNSLRAEDTAVYYCAREGHTAAPFDYWGQGTLVTVSS
VL: DIQMTQSPSSLSASVGDRVTITCRASQNIDKYLNWYQQKPGKAPKSLIYNTNNLQSGVPSRFSGSGSGTDFTLTISSLQPEDIATYYCLQHISRPRTFGTGTKLELK
notes: also called DIVHv5/DIVKv1
B5: DIVH4/DIVK5 (antibody, human IgG1, V domains shown)
VH: EVQLLESGGGLVQPGGSLRLSCAGSGFTFTDFYMNWVRQAPGKGLEWVGFIRDKAKGYTTEYNPSVKGRFTISRDNAKNSLYLQMNSLRAEDTAVYYCAREGHTAAPFDYWGQGTLVTVSS
VL: DIQMTQSPSSLSASVGDRVTITCKASQNIDKYLNWYQQKPGKSPKLLIYNTNNLQTGVPSRFSGSGSGTDFTLTISSLQPEDIATYYCLQHISRPRTFGTGTKLELK
notes: also called DIVHv4/DIVKv5
B6: DIVH4/DIVK3 (antibody, human IgG1, V domains shown)
VH: EVQLLESGGGLVQPGGSLRLSCAGSGFTFTDFYMNWVRQAPGKGLEWVGFIRDKAKGYTTEYNPSVKGRFTISRDNAKNSLYLQMNSLRAEDTAVYYCAREGHTAAPFDYWGQGTLVTVSS
VL: DIQMTQSPSSLSASVGDRVTITCRASQNIDKYLNWYQQKPGKAPKLLIYNTNNLQSGVPSRFSGSGSGTDFTLTISSLQPEDIATYYCLQHISRPRTFGTGTKLELK
notes: also called DIVHv4/DIVKv3
B7: DIVH5/DIVK2 (antibody, human IgG1, V domains shown)
VH: EVQLLESGGGLVQPGGSLRLSCAGSGFTFTDFYMNWIRQPPGKAPEWLGFIRDKAKGYTTEYNPSVKGRFTISRDNSKNTLYLQMNSLRAEDTAVYYCAREGHTAAPFDYWGQGTLVTVSS
VL: DIQMTQSPSSLSASVGDRVTITCKASQNIDKYLNWYQQKPGKAPKLLIYNTNNLQTGVPSRFSGSGSGTDFTLTISSLQPEDIATYYCLQHISRPRTFGTGTKLELK
notes: also called DIVHv5/DIVKv2
B8: DIVH4/DIVK4 (antibody, human IgG1, V domains shown)
VH: EVQLLESGGGLVQPGGSLRLSCAGSGFTFTDFYMNWVRQAPGKGLEWVGFIRDKAKGYTTEYNPSVKGRFTISRDNAKNSLYLQMNSLRAEDTAVYYCAREGHTAAPFDYWGQGTLVTVSS
VL: DIQMTQSPSSLSASVGDRVTITCKASQNIDKYLNWYQQKPGKAPKSLIYNTNNLQTGVPSRFSGSGSGTDFTLTISSLQPEDIATYYCLQHISRPRTFGTGTKLELK
notes: also called DIVHv4/DIVKv4
B9: DIVH1/DIVK3 (antibody, human IgG1, V domains shown)
VH: EVQLLESGGGLVQPGGSLRLSCAGSGFTFTDFYMNWVRQAPGKGLEWVGFIRDKAKGYTTEYNPSVKGRFTISRDNSKNTLYLQMNSLRAEDTAVYYCAREGHTAAPFDYWGQGTLVTVSS
VL: DIQMTQSPSSLSASVGDRVTITCRASQNIDKYLNWYQQKPGKAPKLLIYNTNNLQSGVPSRFSGSGSGTDFTLTISSLQPEDIATYYCLQHISRPRTFGTGTKLELK
notes: also called DIVHv1/DIVKv3
B10: DIVH4/DIVK1 (antibody, human IgG1, V domains shown)
VH: EVQLLESGGGLVQPGGSLRLSCAGSGFTFTDFYMNWVRQAPGKGLEWVGFIRDKAKGYTTEYNPSVKGRFTISRDNAKNSLYLQMNSLRAEDTAVYYCAREGHTAAPFDYWGQGTLVTVSS
VL: DIQMTQSPSSLSASVGDRVTITCRASQNIDKYLNWYQQKPGKAPKSLIYNTNNLQSGVPSRFSGSGSGTDFTLTISSLQPEDIATYYCLQHISRPRTFGTGTKLELK
notes: also called DIVHv4/DIVKv1
B11: DIVH5/DIVK3 (antibody, human IgG1, V domains shown)
VH: EVQLLESGGGLVQPGGSLRLSCAGSGFTFTDFYMNWIRQPPGKAPEWLGFIRDKAKGYTTEYNPSVKGRFTISRDNSKNTLYLQMNSLRAEDTAVYYCAREGHTAAPFDYWGQGTLVTVSS
VL: DIQMTQSPSSLSASVGDRVTITCRASQNIDKYLNWYQQKPGKAPKLLIYNTNNLQSGVPSRFSGSGSGTDFTLTISSLQPEDIATYYCLQHISRPRTFGTGTKLELK
notes: also called DIVHv5/DIVKv3
B12: DIVH2/DIVK4 (antibody, human IgG1, V domains shown)
VH: EVQLLESGGGLVQPGGSLRLSCAGSGFTFTDFYMNWIRQPPGKAPEWIGFIRDKAKGYTTEYNPSVKGRFTISRDNSKNTLYLQMNSLRAEDTAVYYCAREGHTAAPFDYWGQGTLVTVSS
VL: DIQMTQSPSSLSASVGDRVTITCKASQNIDKYLNWYQQKPGKAPKSLIYNTNNLQTGVPSRFSGSGSGTDFTLTISSLQPEDIATYYCLQHISRPRTFGTGTKLELK
notes: also called DIVHv2/DIVKv4
B13: DIVH2/DIVK3 (antibody, human IgG1, V domains shown)
VH: EVQLLESGGGLVQPGGSLRLSCAGSGFTFTDFYMNWIRQPPGKAPEWIGFIRDKAKGYTTEYNPSVKGRFTISRDNSKNTLYLQMNSLRAEDTAVYYCAREGHTAAPFDYWGQGTLVTVSS
VL: DIQMTQSPSSLSASVGDRVTITCRASQNIDKYLNWYQQKPGKAPKLLIYNTNNLQSGVPSRFSGSGSGTDFTLTISSLQPEDIATYYCLQHISRPRTFGTGTKLELK
notes: also called DIVHv2/DIVKv3
B14: DIVH2/DIVK5 (antibody, human IgG1, V domains shown)
VH: EVQLLESGGGLVQPGGSLRLSCAGSGFTFTDFYMNWIRQPPGKAPEWIGFIRDKAKGYTTEYNPSVKGRFTISRDNSKNTLYLQMNSLRAEDTAVYYCAREGHTAAPFDYWGQGTLVTVSS
VL: DIQMTQSPSSLSASVGDRVTITCKASQNIDKYLNWYQQKPGKSPKLLIYNTNNLQTGVPSRFSGSGSGTDFTLTISSLQPEDIATYYCLQHISRPRTFGTGTKLELK
notes: also called DIVHv2/DIVKv5; CAMPATH-1G DIVHv2/DIVKv5
B15: DIVH4/DIVK2 (antibody, human IgG1, V domains shown)
VH: EVQLLESGGGLVQPGGSLRLSCAGSGFTFTDFYMNWVRQAPGKGLEWVGFIRDKAKGYTTEYNPSVKGRFTISRDNAKNSLYLQMNSLRAEDTAVYYCAREGHTAAPFDYWGQGTLVTVSS
VL: DIQMTQSPSSLSASVGDRVTITCKASQNIDKYLNWYQQKPGKAPKLLIYNTNNLQTGVPSRFSGSGSGTDFTLTISSLQPEDIATYYCLQHISRPRTFGTGTKLELK
notes: also called DIVHv4/DIVKv2
B16: DIVH1/DIVK2 (antibody, human IgG1, V domains shown)
VH: EVQLLESGGGLVQPGGSLRLSCAGSGFTFTDFYMNWVRQAPGKGLEWVGFIRDKAKGYTTEYNPSVKGRFTISRDNSKNTLYLQMNSLRAEDTAVYYCAREGHTAAPFDYWGQGTLVTVSS
VL: DIQMTQSPSSLSASVGDRVTITCKASQNIDKYLNWYQQKPGKAPKLLIYNTNNLQTGVPSRFSGSGSGTDFTLTISSLQPEDIATYYCLQHISRPRTFGTGTKLELK
notes: also called DIVHv1/DIVKv2
B17: DIVH2/DIVK1 (antibody, human IgG1, V domains shown)
VH: EVQLLESGGGLVQPGGSLRLSCAGSGFTFTDFYMNWIRQPPGKAPEWIGFIRDKAKGYTTEYNPSVKGRFTISRDNSKNTLYLQMNSLRAEDTAVYYCAREGHTAAPFDYWGQGTLVTVSS
VL: DIQMTQSPSSLSASVGDRVTITCRASQNIDKYLNWYQQKPGKAPKSLIYNTNNLQSGVPSRFSGSGSGTDFTLTISSLQPEDIATYYCLQHISRPRTFGTGTKLELK
notes: also called DIVHv2/DIVKv1
B18: DIVH5/DIVK4 (antibody, human IgG1, V domains shown)
VH: EVQLLESGGGLVQPGGSLRLSCAGSGFTFTDFYMNWIRQPPGKAPEWLGFIRDKAKGYTTEYNPSVKGRFTISRDNSKNTLYLQMNSLRAEDTAVYYCAREGHTAAPFDYWGQGTLVTVSS
VL: DIQMTQSPSSLSASVGDRVTITCKASQNIDKYLNWYQQKPGKAPKSLIYNTNNLQTGVPSRFSGSGSGTDFTLTISSLQPEDIATYYCLQHISRPRTFGTGTKLELK
notes: also called DIVHv5/DIVKv4
B19: DIVH1/DIVK4 (antibody, human IgG1, V domains shown)
VH: EVQLLESGGGLVQPGGSLRLSCAGSGFTFTDFYMNWVRQAPGKGLEWVGFIRDKAKGYTTEYNPSVKGRFTISRDNSKNTLYLQMNSLRAEDTAVYYCAREGHTAAPFDYWGQGTLVTVSS
VL: DIQMTQSPSSLSASVGDRVTITCKASQNIDKYLNWYQQKPGKAPKSLIYNTNNLQTGVPSRFSGSGSGTDFTLTISSLQPEDIATYYCLQHISRPRTFGTGTKLELK
notes: also called DIVHv1/DIVKv4
B20: DIVH1/DIVK5 (antibody, human IgG1, V domains shown)
VH: EVQLLESGGGLVQPGGSLRLSCAGSGFTFTDFYMNWVRQAPGKGLEWVGFIRDKAKGYTTEYNPSVKGRFTISRDNSKNTLYLQMNSLRAEDTAVYYCAREGHTAAPFDYWGQGTLVTVSS
VL: DIQMTQSPSSLSASVGDRVTITCKASQNIDKYLNWYQQKPGKSPKLLIYNTNNLQTGVPSRFSGSGSGTDFTLTISSLQPEDIATYYCLQHISRPRTFGTGTKLELK
notes: also called DIVHv1/DIVKv5

Target: T1, CD52 human leukocyte antigen
Assay: FACS on HUT-78 cells (CD52+), FITC anti-human IgG Fc, median fluorescence, 4-parameter fit; titre = 50% of maximum binding
Method: Human T-cell lymphoma cell line HUT-78 is CD52 positive and was used to assess binding of the modified antibodies of the present invention. In the present example, different concentrations of test antibody were incubated with the cells and the amount of bound antibody was assessed following incubation with a fluorescent-labelled reporter reagent. The reporter is measured using a fluorescence activated cell sorter (FACS).
For detection, the cells were incubated for 1 hour on ice with a 1:1000 dilution of FITC-labelled anti-human IgG Fc domain. This reagent is a goat anti-human IgG (Fc specific) obtained from Sigma (Poole, UK). The cells were washed as previously and re-suspended in 100 μl of PBS/2% FBS and transferred to 4 ml FACS tubes (Becton Dickinson) containing 900 μl of PBS/2% FBS/Propidium Iodide (1:1000). The cells were analysed using a conventional Becton Dickenson FACS Calibur instrument.
The binding of the test and control antibodies was determined using the Median Fluorescence value. The saturating concentration of antibody was determined from plots of the Median Fluorescence—Zero Antibody Median Fluorescence versus Concentration of antibody. The binding curves were fitted to a logistic 4 parameter sigmoidal equation using SigmaPlot, giving an excellent fit with 95% confidence levels.

In order of falling EC50:
1. B2  17.8 µg/mL
2. B8  8.54 µg/mL
3. B12  6.21 µg/mL
4. B17  5.56 µg/mL
5. B10  4.43 µg/mL
6. B18  4.05 µg/mL
7. B4  4.01 µg/mL
8. B13  3.89 µg/mL
9. B1  3.7 µg/mL
10. B19  3.45 µg/mL
11. B3  2.99 µg/mL
12. B11  2.55 µg/mL
13. B7  2.45 µg/mL
14. B5  2.39 µg/mL
15. B6  2.28 µg/mL
16. B20  1.85 µg/mL
17. B9  1.71 µg/mL
18. B16  1.66 µg/mL
19. B15  1.59 µg/mL
20. B14  1.18 µg/mL

Source: patent US20050152898A1 (BIOVATION, published 2005)
